In assay [1] the target is KIR-Fc. As to the kind of experiment: phage ELISA, target-Fc against non-specific control (IgG1-Fc).
The target in assay [2] is DR5-Fc (Homo sapiens (Human)) (UniProt O14763). The description is as above.
Assay [3] has as its target CD47-Fc (Homo sapiens (Human)) (UniProt Q08722). Described as above.
Assay [4] addresses recombinant, biotinylated, Human 4-1BB/TNFRSF9/CD137-Fc (human) (UniProt Q07011). As to the kind of experiment: phage ELISA, CD137-Fc against control IgG Fc.
Assay [5] has as its target IgG Fc (control). As to the kind of experiment: phage ELISA of rescued clones on control IgG Fc. Background: An ELISA detects its analyte on a solid surface through an enzyme-linked reagent.
In assay [6] the target is recombinant, biotinylated, Human 4-1BB/TNFRSF9/CD137-Fc (human) (UniProt Q07011). As to the kind of experiment: phage ELISA of rescued clones.
Sequence of recombinant, biotinylated, Human 4-1BB/TNFRSF9/CD137-Fc (human) (Q07011 24-186 limits assumed): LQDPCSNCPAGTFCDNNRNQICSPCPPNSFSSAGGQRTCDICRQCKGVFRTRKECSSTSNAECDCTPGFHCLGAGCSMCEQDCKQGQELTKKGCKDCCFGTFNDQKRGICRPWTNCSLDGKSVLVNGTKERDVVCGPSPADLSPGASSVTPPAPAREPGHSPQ
Assay [7] shares this target. As to the kind of experiment: phage ELISA, target-Fc against non-specific control (IgG1-Fc).
Assay [8] has as its target PD-L1-Fc (human) (UniProt Q9NZQ7). The description is as above.
The target in assay [9] is TIM3-Fc (Homo sapiens (Human)) (UniProt Q8TDQ0). The description is as above.
Assay [10] addresses CTLA4-Fc (Homo sapiens (Human)) (UniProt P16410). The description is as above.
The target of assay [11] is PD1-Fc (Homo sapiens (Human)) (UniProt Q15116). The assay is described as above.
Sequence of PD1-Fc (Homo sapiens (Human)) (Q15116 25-167 limits assumed): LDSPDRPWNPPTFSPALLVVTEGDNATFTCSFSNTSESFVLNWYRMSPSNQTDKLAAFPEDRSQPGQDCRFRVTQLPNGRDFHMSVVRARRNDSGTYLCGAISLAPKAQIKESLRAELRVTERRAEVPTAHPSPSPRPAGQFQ

Positions count from the first letter of the chain named.

Sequence of CD47-Fc (Homo sapiens (Human)) (Q08722 19-139 limits assumed): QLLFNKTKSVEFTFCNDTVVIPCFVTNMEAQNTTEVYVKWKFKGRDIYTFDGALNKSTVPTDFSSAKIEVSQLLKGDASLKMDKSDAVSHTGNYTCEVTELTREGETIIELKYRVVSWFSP
Sequence of PD-L1-Fc (human) (Q9NZQ7 19-239 limits assumed): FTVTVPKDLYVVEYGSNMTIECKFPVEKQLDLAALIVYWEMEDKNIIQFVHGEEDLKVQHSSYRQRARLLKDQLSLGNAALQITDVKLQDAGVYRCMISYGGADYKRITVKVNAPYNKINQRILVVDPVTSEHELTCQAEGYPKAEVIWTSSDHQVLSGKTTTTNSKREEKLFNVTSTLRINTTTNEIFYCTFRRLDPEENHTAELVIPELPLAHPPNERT
Sequence of DR5-Fc (Homo sapiens (Human)) (O14763 56-182 limits assumed): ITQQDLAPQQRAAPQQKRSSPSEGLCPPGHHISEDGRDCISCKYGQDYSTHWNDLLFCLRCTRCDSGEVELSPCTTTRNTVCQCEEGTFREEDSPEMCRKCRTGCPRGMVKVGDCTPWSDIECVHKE
Sequence of CTLA4-Fc (Homo sapiens (Human)) (P16410 37-162 limits assumed): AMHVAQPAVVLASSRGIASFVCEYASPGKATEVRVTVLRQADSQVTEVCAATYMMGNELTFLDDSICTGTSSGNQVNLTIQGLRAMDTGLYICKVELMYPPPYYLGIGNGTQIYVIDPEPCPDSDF

B1: DBDpp of SEQ ID NO: 36 (designed binder)
chain: MGSWYEFYNRLYAIEIRLYALGGSEAELAAFEKEIAAFESELQAYKGKGNPEVERLRVRAAKIRVILQAYRHN
On to B1, for which, in [1], the ELISA ratio (target to background) came out at 4.24.

B2: DBDpp of SEQ ID NO: 28 (designed binder)
chain: MGSWVYFKEHLAWIKTELEALGGSEAELAHFEHSIADFEMSLQFYKGKGNPEVEALRKEAAAIRDELQAYRHN
Consider B2, for which the ELISA ratio (target to background) in assay [2] came to 12.1.

B3: DBDpp of SEQ ID NO: 33 (designed binder)
chain: B2 chain with V5T, W13E, T16Y, E17M, H33V, S34A, M40K, S41M, F44Y
For B3, the ELISA ratio (target to background) in assay [2] stood at 10.3.

B4: DBDpp of SEQ ID NO: 32 (designed binder)
chain: B2 chain with V5I, W13Y, T16K, H33S, S34A, D37V, M40S, S41T, F44Y
Consider B4, for which the ELISA ratio (target to background) in assay [2] stood at 10.7.

B5: DBDpp of SEQ ID NO: 24 (designed binder)
chain: MGSWTEFYSRLEAIWVRLQALGGSEAELAMFEDRIAHFEWFLQQYKGKGNPEVEALHEEAIAIRKELAAYRHN
On to B5, for which, in [3], the ELISA ratio (target to background) is 4.58.

B6: bb10 (designed binder)
chain: MGSWAEFKQRLAAIKTRLEALGGSEAELAAFLGEIWAFEMELAAYKGKGNPEVEALGREAAAIRMELQAYRHN
B6: the ELISA ratio (target to background) in assay [4] came out at 5.27. Further, the results for the ELISA absorbance (average) in [5] and in [6] were 0.067 and 0.353, respectively.

B7: DBDpp of SEQ ID NO: 15 (designed binder)
chain: MGSWYEFSMRLWAIDQRLYALGGSEAELAAFEKEIAAFESELQAYKGKGNPEVEALRAKAAYIRWKLQAYRHN
For the molecule B7, the ELISA ratio (target to background) in assay [7] is 12.

B8: DBDpp of SEQ ID NO: 14 (designed binder)
chain: B7 chain with S8R, M9H, A55G, A58E, K59A, Y62F, W65A
Regarding B8, the ELISA ratio (target to background) in [7] came out at 13.

B9: DBDpp of SEQ ID NO: 18 (designed binder)
chain: B7 chain with S8H, M9Y, W12H, A55E, A58I, Y62F, W65D, K66R
With B9, the ELISA ratio (target to background) in assay [7] is 7.26.

B10: DBDpp of SEQ ID NO: 12 (designed binder)
chain: B7 chain with Y5V, S8G, M9H, A55K, A58Q, K59R, Y62F, W65F, K66R
For B10, in assay [7], the ELISA ratio (target to background) was 20.6.

B11: DBDpp of SEQ ID NO: 13 (designed binder)
chain: B7 chain with Y5V, S8A, M9N, Y19F, A55H, A58D, K59Q, Y62F, W65H
On to B11, for which the ELISA ratio (target to background) in assay [7] worked out at 16.1.

B12: DBDpp of SEQ ID NO: 17 (designed binder)
chain: B7 chain with S8G, M9H, A55Y, A58E, K59T, Y62H, W65T, K66R
For the molecule B12, the ELISA ratio (target to background) in assay [7] is 7.71.

B13: DBDpp of SEQ ID NO: 37 (designed binder)
chain: MGSWLWFKIFLAEIKYFLEALGGSEAELAAFDFEIHAFHVELFAYKGKGNPEVEVLREVAAEIRWDLQAYRHN
For the molecule B13, the ELISA ratio (target to background) in assay [1] was found to be 4.17.

B14: DBDpp of SEQ ID NO: 38 (designed binder)
chain: MGSWTEFQSRLDAIHSRLRALGGSEAELAAFEKEIAAFESELQAYKGKGNPEVELLRDDAAFIRHFLQAYRHN
With B14, the ELISA ratio (target to background) in assay [8] is 8.68.

B15: DBDpp of SEQ ID NO: 40 (designed binder)
chain: B14 chain with T5Y, S9N, D12H, S16E, R19N
For B15, the ELISA ratio (target to background) in [8] was determined as 6.34.

B16: DBDpp of SEQ ID NO: 42 (designed binder)
chain: B14 chain with T5Y, Q8E, S16E, R19H, L55N, D58G
Regarding B16, the ELISA ratio (target to background) in assay [8] was found to be 4.88.

B17: DBDpp of SEQ ID NO: 39 (designed binder)
chain: B14 chain with T5Q, Q8D, S9D, D12N, H15K, S16A, R19Q, L55D, H65R
For the molecule B17, the ELISA ratio (target to background) in assay [8] was found to be 7.41.

B18: DBDpp of SEQ ID NO: 43 (designed binder)
chain: B14 chain with T5Y, Q8N, S9H, H15S, S16K, R19N, L55E, D58G
As to B18, the ELISA ratio (target to background) in assay [8] came out at 2.98.

B19: DBDpp of SEQ ID NO: 16 (designed binder)
chain: MGSWFEFNHRLWAINERLYALGGSEAELAAFEKEIAAFESELQAYKGKGNPEVERLRSMAAFIRYKLQAYRHN
Consider B19, for which the ELISA ratio (target to background) in [7] turned out to be 11.9.

B20: DBDpp of SEQ ID NO: 41 (designed binder)
chain: B19 chain with N8Q, H9D, W12T, Y19S, R55T, M59D, Y65R, K66F
For the molecule B20, the ELISA ratio (target to background) in assay [8] turned out to be 6.01.

B21: DBDpp of SEQ ID NO: 21 (designed binder)
chain: MGSWTEFTYRLSAIEWRLWALGGSEAELAWFEQKIAFFEDFLQYYKGKGNPEVEALKHEAGAILNELMAYRHN
As to B21, the ELISA ratio (target to background) in assay [3] was determined as 12.5.

B22: DBDpp of SEQ ID NO: 23 (designed binder)
chain: MGSWTEFVGRLAAIEFRLWALGGSEAELAWFEAHIAFFEDYLQWYKGKGNPEVEALREEAGAIMEELKAYRHN
As to B22, the ELISA ratio (target to background) in assay [3] was 8.23.

B23: DBDpp of SEQ ID NO: 45 (designed binder)
chain: MGSWVVFKVDLATIKYILEALGGSEAELAEFEGEIAGFEYSLQFYKGKGNPEVEALRKEAAAIRDELQAYRHN
As for B23, in [9], the ELISA ratio (target to background) turned out to be 5.79.

B24: DBDpp of SEQ ID NO: 25 (designed binder)
chain: MGSWHEFHDRLQAIHERLYALGGSEAELAAFEKEIAAFESELQAYKGKGNPEVESLRIAAAHIRQVLQAYRHN
For the molecule B24, the ELISA ratio (target to background) in [10] stood at 2.95.

B25: DBDpp of SEQ ID NO: 46 (designed binder)
chain: MGSWTIFKEWLAFIKTDLEALGGSEAELAFFEGWIASFEMELQKYKGKGNPEVEALRKEAAAIRDELQAYRHN
In the case of B25, the ELISA ratio (target to background) in assay [11] turned out to be 17.1.

B26: DBDpp of SEQ ID NO: 20 (designed binder)
chain: MGSWYEFDLRLHAIYDRLVALGGSEAELAAFEKEIAAFESELQAYKGKGNPEVEILRDNAAYIRQMLQAYRHN
B26: in assay [3], the ELISA ratio (target to background) came out at 14.1.

B27: DBDpp of SEQ ID NO: 22 (designed binder)
chain: B26 chain with Y5A, L9H, Y15R, D16E, V19H, D58G, Q65A, M66L
Turning to B27, the ELISA ratio (target to background) in assay [3] turned out to be 11.7.

B28: DBDpp of SEQ ID NO: 47 (designed binder)
chain: MGSWVMFKWLLADIKSHLEALGGSEAELAFFEGFIAAFETHLQVYKGKGNPEVEALRKEAAAIRDELQAYRHN
For B28, the ELISA ratio (target to background) in assay [11] is 8.13.

B29: DBDpp of SEQ ID NO: 44 (designed binder)
chain: MGSWFEFENRLHAIVHRLGALGGSEAELAAFEKEIAAFESELQAYKGKGNPEVETLRADAAFIRHYLQAYRHN
Take B29: the ELISA ratio (target to background) in [8] is 2.76.

B30: DBDpp of SEQ ID NO: 26 (designed binder)
chain: MGSWNYFKDHLAWIKNSLEALGGSEAELAHFETAIASFERQLQEYKGKGNPEVEALRKEAAAIRDELQAYRHN
As for B30, the ELISA ratio (target to background) in assay [2] worked out at 13.

B31: DBDpp of SEQ ID NO: 31 (designed binder)
chain: B30 chain with N5H, D9G, W13E, S17H, T33R, S37A, Q41S, E44W
As for B31, the ELISA ratio (target to background) in assay [2] turned out to be 10.8.

B32: DBDpp of SEQ ID NO: 29 (designed binder)
chain: B30 chain with N5F, D9Q, N16S, S17Y, T33R, S37A, R40Q, Q41H, E44M
Turning to B32, in assay [2], the ELISA ratio (target to background) is 11.8.

B33: DBDpp of SEQ ID NO: 27 (designed binder)
chain: B30 chain with N5L, D9E, W13H, N16A, S17W, T33L, S37D, R40Y, Q41H
Take B33: the ELISA ratio (target to background) in assay [2] stood at 12.3.

B34: DBDpp of SEQ ID NO: 34 (designed binder)
chain: B30 chain with N5W, Y6L, W13E, N16T, S17A, T33M, S37A, R40K, E44Y
Regarding B34, the ELISA ratio (target to background) in [2] is 9.75.

B35: DBDpp of SEQ ID NO: 30 (designed binder)
chain: B30 chain with N5H, W13E, N16G, S17L, T33M, S37D, R40H, Q41N, E44Y
As to B35, the ELISA ratio (target to background) in assay [2] came to 11.4.

B36: DBDpp of SEQ ID NO: 48 (designed binder)
chain: MGSWYAFKDYLADIKGWLEALGGSEAELAFFEIFIARFELELQAYKGKGNPEVEALRKEAAAIRDELQAYRHN
For the molecule B36, the ELISA ratio (target to background) in assay [11] was determined as 3.29.

B37: DBDpp of SEQ ID NO: 35 (designed binder)
chain: MGSWSEFYNRLDAIESRLLALGGSEAELALFEIQIARFEKVLQAYKGKGNPEVEALRGEARAIFAELYAYRHN
B37: the ELISA ratio (target to background) in assay [1] stood at 8.4.

(Values after patent publication US10647775B2.)
